According to the supplement of paper PMC9112550, “Optimization of the antimicrobial peptide Bac7 by deep mutational scanning” (BMC Biology, 2022):

System: Escherichia coli TOP10
Experiment: shrunken log2 fold change of peptide-encoding DNA abundance (4.5 h post-induction vs induction); higher = less antimicrobial activity (less host growth inhibition)
Conditions: time post-induction: 4.5 h; library: site-saturation at positions 5, 18, 19, 20
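Note: peptides expressed intracellularly from a pBAD plasmid library in pooled LB shake-flask culture, induced with 0.3% L-arabinose, DNA abundance read by NGS, three biological replicates, DESeq2 with apeglm shrinkage.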

Sequence	shrunken log2 fold change
RRIRGRPPRLPRPRPRPHTRPRP	0.559
RRIRYRPPRLPRPRPRPCFCPRP	-0.565
RRIRWRPPRLPRPRPRPPDGPRP	0.784
RRIRKRPPRLPRPRPRPMTPPRP	0.334
RRIRPRPPRLPRPRPRPVFRPRP	-0.332
RRIRSRPPRLPRPRPRPIVVPRP	0.027
RRIRYRPPRLPRPRPRPDYSPRP	-0.245
RRIRDRPPRLPRPRPRPAKIPRP	-0.00511
RRIRVRPPRLPRPRPRPTMWPRP	0.267
RRIRGRPPRLPRPRPRPLQNPRP	0.693
RRIRMRPPRLPRPRPRPHQNPRP	0.114
RRIRIRPPRLPRPRPRPAYDPRP	-0.325
RRIRTRPPRLPRPRPRPWEPPRP	-0.0542
RRIRIRPPRLPRPRPRPLSTPRP	-0.599
RRIRFRPPRLPRPRPRPRVMPRP	0.138
RRIRWRPPRLPRPRPRPFVHPRP	-0.423
RRIRSRPPRLPRPRPRPACTPRP	0.28
RRIRCRPPRLPRPRPRPWMFPRP	-0.453
RRIRYRPPRLPRPRPRPATHPRP	-0.318
RRIRPRPPRLPRPRPRPEMRPRP	0.329
RRIRCRPPRLPRPRPRPFYDPRP	-0.826
RRIRYRPPRLPRPRPRPYKAPRP	0.019
RRIRNRPPRLPRPRPRPEGNPRP	-0.0214
RRIRLRPPRLPRPRPRPWCHPRP	-0.441
RRIRMRPPRLPRPRPRPHWGPRP	0.12

Sequence	shrunken log2 fold change
RRIRERPPRLPRPRPRPHAPPRP	-0.0944
RRIRNRPPRLPRPRPRPPSLPRP	-0.0145
RRIRGRPPRLPRPRPRPYCQPRP	-0.32
RRIRERPPRLPRPRPRPLQFPRP	-0.468
RRIRLRPPRLPRPRPRPRWEPRP	0.0629
RRIRRRPPRLPRPRPRPRESPRP	0.59
RRIRERPPRLPRPRPRPPWWPRP	0.537
RRIRERPPRLPRPRPRPMNLPRP	-0.0666
RRIRARPPRLPRPRPRPHFSPRP	0.0805
RRIRVRPPRLPRPRPRPRGQPRP	0.131
RRIRIRPPRLPRPRPRPKLKPRP	-0.688
RRIRYRPPRLPRPRPRPTLWPRP	0.31
RRIRFRPPRLPRPRPRPWDHPRP	-0.483
RRIRQRPPRLPRPRPRPEGAPRP	0.852
RRIRWRPPRLPRPRPRPLFNPRP	-0.711
RRIRLRPPRLPRPRPRPHKIPRP	-0.0592
RRIRKRPPRLPRPRPRPAPQPRP	0.937
RRIRWRPPRLPRPRPRPSTSPRP	-0.302
RRIRTRPPRLPRPRPRPHSPPRP	-0.278
RRIRIRPPRLPRPRPRPVVVPRP	-0.0561
RRIRERPPRLPRPRPRPMTHPRP	-0.0346
RRIRCRPPRLPRPRPRPHQDPRP	-0.365
RRIRGRPPRLPRPRPRPEFCPRP	1.23
RRIRQRPPRLPRPRPRPATTPRP	0.351
RRIRWRPPRLPRPRPRPQKWPRP	0.00891

Sequence	shrunken log2 fold change
RRIRMRPPRLPRPRPRPDQQPRP	-0.0225
RRIRMRPPRLPRPRPRPAGEPRP	1.87
RRIRVRPPRLPRPRPRPCVEPRP	0.0543
RRIRSRPPRLPRPRPRPEAFPRP	-0.0131
RRIRVRPPRLPRPRPRPCYRPRP	-0.00925
RRIRYRPPRLPRPRPRPLHMPRP	-0.116
RRIRPRPPRLPRPRPRPNPLPRP	0.149
RRIRCRPPRLPRPRPRPRFFPRP	0.191
RRIRMRPPRLPRPRPRPEMWPRP	2.4
RRIRRRPPRLPRPRPRPGLDPRP	0.161
RRIRCRPPRLPRPRPRPYVFPRP	-0.362
RRIRMRPPRLPRPRPRPAWTPRP	0.08
RRIRFRPPRLPRPRPRPVDSPRP	0.0218
RRIRHRPPRLPRPRPRPKFWPRP	0.00227
RRIRIRPPRLPRPRPRPLTHPRP	-0.358
RRIRMRPPRLPRPRPRPSCPPRP	-0.0916
RRIRNRPPRLPRPRPRPKSKPRP	0.0844
RRIRLRPPRLPRPRPRPPAFPRP	0.144
RRIRIRPPRLPRPRPRPGAIPRP	-0.0678
RRIRVRPPRLPRPRPRPAMSPRP	-0.096
RRIRVRPPRLPRPRPRPQLHPRP	-0.147
RRIRRRPPRLPRPRPRPGPSPRP	0.442
RRIRERPPRLPRPRPRPKTNPRP	-0.293
RRIRERPPRLPRPRPRPIVSPRP	0.0707
RRIRTRPPRLPRPRPRPLTMPRP	-0.27

Sequence	shrunken log2 fold change
RRIRQRPPRLPRPRPRPMRRPRP	0.225
RRIRIRPPRLPRPRPRPLYLPRP	-1.08
RRIRDRPPRLPRPRPRPYQNPRP	-0.288
RRIRIRPPRLPRPRPRPHKIPRP	-0.462
RRIRMRPPRLPRPRPRPKKQPRP	0.0673
RRIRVRPPRLPRPRPRPHIFPRP	-0.547
RRIRQRPPRLPRPRPRPPRSPRP	0.601
RRIRQRPPRLPRPRPRPKYMPRP	-0.386
RRIRCRPPRLPRPRPRPCCFPRP	-0.155
RRIRRRPPRLPRPRPRPQGWPRP	0.294
RRIRCRPPRLPRPRPRPFLSPRP	-0.28
RRIRERPPRLPRPRPRPIHNPRP	-0.659
RRIRERPPRLPRPRPRPLCPPRP	-0.393
RRIRLRPPRLPRPRPRPHMRPRP	0.125
RRIRPRPPRLPRPRPRPRHRPRP	0.177
RRIRVRPPRLPRPRPRPTIWPRP	-0.0331
RRIRLRPPRLPRPRPRPTSAPRP	0.659
RRIRDRPPRLPRPRPRPELWPRP	2.17
RRIRSRPPRLPRPRPRPDYFPRP	-0.133
RRIRYRPPRLPRPRPRPMVWPRP	-0.0211
RRIRMRPPRLPRPRPRPNASPRP	0.0546
RRIRGRPPRLPRPRPRPFWTPRP	0.0497
RRIRYRPPRLPRPRPRPIFRPRP	-0.258
RRIRLRPPRLPRPRPRPSPYPRP	-0.674
RRIRYRPPRLPRPRPRPHKQPRP	-0.0853

Sequence	shrunken log2 fold change
RRIRRRPPRLPRPRPRPGCYPRP	0.17
RRIRGRPPRLPRPRPRPKQMPRP	1.03
RRIRTRPPRLPRPRPRPGSDPRP	0.424
RRIRIRPPRLPRPRPRPTCTPRP	-0.807
RRIRARPPRLPRPRPRPREKPRP	0.383
RRIRSRPPRLPRPRPRPWGSPRP	-0.0403
RRIRGRPPRLPRPRPRPLMSPRP	0.271
RRIRERPPRLPRPRPRPNMEPRP	-0.384
RRIRIRPPRLPRPRPRPYYHPRP	-0.839
RRIRWRPPRLPRPRPRPTPYPRP	0.284
RRIRERPPRLPRPRPRPWWDPRP	-0.0282
RRIRTRPPRLPRPRPRPWCKPRP	-0.202
RRIRLRPPRLPRPRPRPHNVPRP	0.0245
RRIRPRPPRLPRPRPRPFKDPRP	-0.93
RRIRCRPPRLPRPRPRPCRSPRP	0.118
RRIRKRPPRLPRPRPRPCVRPRP	-0.215
RRIRCRPPRLPRPRPRPDGQPRP	0.101
RRIRSRPPRLPRPRPRPSYPPRP	-0.736
RRIRLRPPRLPRPRPRPQIQPRP	-0.0697
RRIRTRPPRLPRPRPRPWIVPRP	-0.0452
RRIRIRPPRLPRPRPRPARIPRP	-0.0826
RRIRHRPPRLPRPRPRPDGMPRP	-0.444
RRIRGRPPRLPRPRPRPEEQPRP	-0.00213
RRIRARPPRLPRPRPRPCNEPRP	-0.0554
RRIRWRPPRLPRPRPRPWTPPRP	0.0119

Sequence	shrunken log2 fold change
RRIRFRPPRLPRPRPRPMYIPRP	-1.09
RRIRNRPPRLPRPRPRPKHNPRP	-0.434
RRIRHRPPRLPRPRPRPIKTPRP	-0.00476
RRIRHRPPRLPRPRPRPFEAPRP	-0.214
RRIRDRPPRLPRPRPRPHFMPRP	-0.47
RRIRHRPPRLPRPRPRPTIYPRP	-0.254
RRIRNRPPRLPRPRPRPCSWPRP	-0.117
RRIRVRPPRLPRPRPRPEMPPRP	0.0341
RRIRTRPPRLPRPRPRPCLSPRP	0.079
RRIRRRPPRLPRPRPRPNEKPRP	-0.023
RRIRTRPPRLPRPRPRPIDPPRP	-0.201
RRIRYRPPRLPRPRPRPRYNPRP	-0.339
RRIRCRPPRLPRPRPRPQKGPRP	-0.133
RRIRQRPPRLPRPRPRPHMLPRP	-1.18
RRIRKRPPRLPRPRPRPCDQPRP	-0.0132
RRIRNRPPRLPRPRPRPKKWPRP	-0.00407
RRIRRRPPRLPRPRPRPLMWPRP	0.163
RRIRERPPRLPRPRPRPMQWPRP	0.00938
RRIRDRPPRLPRPRPRPIAWPRP	0.0633
RRIRRRPPRLPRPRPRPDWRPRP	0.36
RRIRNRPPRLPRPRPRPACRPRP	0.4
RRIRDRPPRLPRPRPRPMYGPRP	-0.0676
RRIRRRPPRLPRPRPRPSCYPRP	-0.0677
RRIRSRPPRLPRPRPRPIWDPRP	0.309
RRIRRRPPRLPRPRPRPYWAPRP	-0.199
